# Publication PMC12561398, “The N-Terminal Extension of the Mycobacterium avium Rel Protein Is a Dual Regulator of the Bifunctional Enzyme and Represents a Novel Target” (Antibiotics, 2025)
# B1: MavRel_(1–444) (domain or fragment, Mycobacterium avium subsp. avium, UniProt A0ACG7XC01 1-444, looked up)
# chain: MAEENSAAQALDAPAESPPNPVIETPEPPTESLKTSSSASRRVRARLARRMTAQRSTLNPVLEPLVAMHREIYPKANVQLLQRAFEVADQRHASQLRHSGDPYITHPLAVATILAELGMDTTTLVAALLHDTVEDTGYTLAQLSEEFGEEVGHLVDGVTKLDRVVLGSAAEGETIRKMITAMARDPRVLVIKVADRLHNMRTMRFLPPEKQARKARETLEVIAPLAHRLGMASVKWELEDLSFAILHPKKYDEIVRLVAGRAPSRDTYLAKVRAEIINTLNASKIKATVEGRPKHYWSIYQKMIVKGRDFDDIHDLVGIRILCDEIRDCYAAVGVVHSLWQPMAGRFKDYIAQPRYGVYQSLHTTVVGPEGKPLEVQIRTRDMHRTAEYGIAAHWRYKEAKGRNGVPHPHAAAEIDDMAWMRQLLDWQREAADPGEFLESLRYD
# notes: The N-terminal His6 tag is stated for the parent relA construct in pET29b; also called MavRel NTD; N-terminal domain (NTD) of MavRel; source: E. coli C41(DE3), purified (Ni-NTA, SEC)
# B2: MavRel_(51–444) (domain or fragment)
# chain: MTAQRSTLNPVLEPLVAMHREIYPKANVQLLQRAFEVADQRHASQLRHSGDPYITHPLAVATILAELGMDTTTLVAALLHDTVEDTGYTLAQLSEEFGEEVGHLVDGVTKLDRVVLGSAAEGETIRKMITAMARDPRVLVIKVADRLHNMRTMRFLPPEKQARKARETLEVIAPLAHRLGMASVKWELEDLSFAILHPKKYDEIVRLVAGRAPSRDTYLAKVRAEIINTLNASKIKATVEGRPKHYWSIYQKMIVKGRDFDDIHDLVGIRILCDEIRDCYAAVGVVHSLWQPMAGRFKDYIAQPRYGVYQSLHTTVVGPEGKPLEVQIRTRDMHRTAEYGIAAHWRYKEAKGRNGVPHPHAAAEIDDMAWMRQLLDWQREAADPGEFLESLRYD
# notes: source: E. coli C41(DE3), purified (Ni-NTA, SEC)
# Tests used:
# [1] = target: T1, MavRel ACT domain (Mycobacterium avium, UniProt A0ACG7XC01); settings: protein (dimer):valine 1:10 and 1:50; 50 mM Tris pH 8.5, 100 mM NaCl, 5% glycerol; 298 K; cleft at dimer interface
# T1 construct: gene relA
# [2] = system: MavRel TGS Y473W (Mycobacterium avium subsp. avium ATCC 25291); assay: tryptophan fluorescence quenching; settings: 50 mM Tris-HCl pH 8.5, 350 mM NaCl, 1 mM DTT; excitation 295 nm, emission 355 nm; temperature not stated
# [3] = system: MavRel Y473W (full length) (Mycobacterium avium subsp. avium ATCC 25291); assay: tryptophan fluorescence quenching; settings: 50 mM Tris-HCl pH 8.5, 350 mM NaCl, 1 mM DTT; excitation 295 nm, emission 355 nm; temperature not stated
# [4] = target: the molecule itself; assay: SEC
molecule,measurement,setting,value
CC(C)[C@H](N)C(=O)O [valine],chemical shift perturbation,[1],indicates MavRel ACT:valine binding as well as a change in conformation
deacylated E. coli tRNA,Kd,[2],650 nM
same,Kd,[3],1670 nM
B1,stoichiometry N,[4],2
B2,stoichiometry N,[4],2
